Among the data in patent US20040203101A1 are K, k and ki values, retold here.

This assay has as its target rat nerve growth factor gamma (rat). As to the kind of experiment: kinetic constants for the interaction of BAIT with proteinases; method not described.

Chain of human BAIT (Brain-Associated Inhibitor of Tissue-Type Plasminogen Activator), mature protein expressed in baculovirus/Sf9 cells and purified (Q99574 19-410): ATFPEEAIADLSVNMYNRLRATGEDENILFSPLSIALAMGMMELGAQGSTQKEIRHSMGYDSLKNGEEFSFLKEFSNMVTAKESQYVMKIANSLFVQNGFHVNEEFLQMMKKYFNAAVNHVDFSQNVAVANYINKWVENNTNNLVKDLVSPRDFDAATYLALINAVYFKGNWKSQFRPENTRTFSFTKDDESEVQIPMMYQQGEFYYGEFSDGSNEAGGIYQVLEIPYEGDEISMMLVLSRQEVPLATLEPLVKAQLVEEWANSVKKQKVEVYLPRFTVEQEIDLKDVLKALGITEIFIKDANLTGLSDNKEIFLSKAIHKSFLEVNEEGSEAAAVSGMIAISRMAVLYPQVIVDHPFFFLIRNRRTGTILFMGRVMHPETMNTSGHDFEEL

For the substance “human BAIT (Brain-Associated Inhibitor of Tissue-Type Plasminogen Activator), mature protein expressed in baculovirus/Sf9 cells and purified (from UniProt Q99574 19-410)”, the K turned out to be 1.3 µM, the k is 0.0086 s⁻¹ and the ki was 6500 M⁻¹ s⁻¹.
